Source: publication PMC5971111 (Nature structural & molecular biology, 2018)

Molecular target: T1, Sec8 (S. cerevisiae, UniProt P32855 1-1065)
T1 sequence: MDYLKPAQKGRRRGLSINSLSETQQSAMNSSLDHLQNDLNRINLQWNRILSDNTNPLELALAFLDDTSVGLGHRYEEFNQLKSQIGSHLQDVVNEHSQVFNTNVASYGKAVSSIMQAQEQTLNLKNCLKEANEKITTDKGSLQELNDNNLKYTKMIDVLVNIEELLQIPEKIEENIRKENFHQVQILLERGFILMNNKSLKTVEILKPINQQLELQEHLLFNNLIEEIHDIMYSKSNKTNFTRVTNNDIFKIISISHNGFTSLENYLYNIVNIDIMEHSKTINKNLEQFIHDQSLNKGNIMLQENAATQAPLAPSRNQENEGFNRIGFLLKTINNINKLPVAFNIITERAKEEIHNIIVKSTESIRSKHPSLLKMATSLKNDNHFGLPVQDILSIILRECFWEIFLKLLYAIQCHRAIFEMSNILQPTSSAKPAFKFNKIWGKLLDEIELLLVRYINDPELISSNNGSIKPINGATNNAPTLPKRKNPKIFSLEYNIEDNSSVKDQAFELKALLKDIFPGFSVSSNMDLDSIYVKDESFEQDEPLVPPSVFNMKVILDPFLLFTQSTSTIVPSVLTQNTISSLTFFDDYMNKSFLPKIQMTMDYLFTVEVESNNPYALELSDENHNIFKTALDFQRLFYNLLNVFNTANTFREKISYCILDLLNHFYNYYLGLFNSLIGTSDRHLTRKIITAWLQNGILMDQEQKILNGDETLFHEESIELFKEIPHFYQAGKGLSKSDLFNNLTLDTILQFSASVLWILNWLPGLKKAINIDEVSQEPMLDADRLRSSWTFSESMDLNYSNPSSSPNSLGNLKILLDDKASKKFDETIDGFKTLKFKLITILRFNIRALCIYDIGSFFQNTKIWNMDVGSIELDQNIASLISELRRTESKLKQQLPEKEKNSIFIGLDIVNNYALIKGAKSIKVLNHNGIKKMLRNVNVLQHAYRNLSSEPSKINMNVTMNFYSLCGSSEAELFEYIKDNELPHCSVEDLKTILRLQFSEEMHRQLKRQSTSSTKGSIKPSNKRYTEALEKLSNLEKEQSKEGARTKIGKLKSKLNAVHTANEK
Assay: […]

B1: Exo84 (natural protein)
chain: MVEFSLKKARNNWKHVKKSASSPAKQKTPPSPAKPKQKTKKNPYSDLKDPATSYTLPTINARERSRVATSMQRRLSIHNTNYAPPTLDYSMPLPDMPNMIVPNDNVDSSHNNSSFTTENESVSSKGPSNSLNLSTADLSLNDSSYNKVPARSAMRNTVNPSGSNDPFNNSTSLRKMLANPHFNAKDFVHDKLGNASAITIDKFTSNLTDLSIQVQEEVKLNINKSYNEIMTVNNDLNVAMLELKRVRANINDLNEVLDQCTKIAEKRLQLQDQIDQERQGNFNNVESHSNSPALLPPLKAGQNGNLMRRDRSSVLILEKFWDTELDQLFKNVEGAQKFINSTKGRHILMNSANWMELNTTTGKPLQMVQIFILNDLVLIADKSRDKQNDFIVSQCYPLKDVTVTQEEFSTKRLLFKFSNSNSSLYECRDADECSRLLDVIRKAKDDLCDIFHVEEENSKRIRESFRYLQSTQQTPGRENNRSPNKNKRRSMGGSITPGRNVTGAMDQYLLQNLTLSMHSRPRSRDMSSTAQRLKFLDEGVEEIDIELARLRFESAVETLLDIESQLEDLSERISDEELMLLNLISLKIEQRREAISSKLSQSILSSNEIVHLKSGTENMIKLGLPEQALDLFLQNRSNFIQDLILQIGSVDNPTNYLTQLAVIRFQTIKKTVEDFQDIFKELGAKISSILVDWCSDEVDNHFKLIDKQLLNDEMLSPGSIKSSRKQIDGLKAVGLDFVYKLDEFIKKNSDKIR
binding result: binds
